Literature values, collected in US6537965B1, “Amino-terminal modified parathyroid hormone (PTH) analogs” (The General Hospital Corporation, priority 1998, dated 2003).

What was measured:
human PTHRs [1] = target: T1, human PTHRs (Homo sapiens, UniProt Q03431); parameters: host or cells: LLC-PK1, COS-7 or HEK 293 cells; conditions: human PTHRs in LLC-PK1, COS-7 or HEK 293 cells; cited from earlier work
T1 sequence (Q03431 27-593): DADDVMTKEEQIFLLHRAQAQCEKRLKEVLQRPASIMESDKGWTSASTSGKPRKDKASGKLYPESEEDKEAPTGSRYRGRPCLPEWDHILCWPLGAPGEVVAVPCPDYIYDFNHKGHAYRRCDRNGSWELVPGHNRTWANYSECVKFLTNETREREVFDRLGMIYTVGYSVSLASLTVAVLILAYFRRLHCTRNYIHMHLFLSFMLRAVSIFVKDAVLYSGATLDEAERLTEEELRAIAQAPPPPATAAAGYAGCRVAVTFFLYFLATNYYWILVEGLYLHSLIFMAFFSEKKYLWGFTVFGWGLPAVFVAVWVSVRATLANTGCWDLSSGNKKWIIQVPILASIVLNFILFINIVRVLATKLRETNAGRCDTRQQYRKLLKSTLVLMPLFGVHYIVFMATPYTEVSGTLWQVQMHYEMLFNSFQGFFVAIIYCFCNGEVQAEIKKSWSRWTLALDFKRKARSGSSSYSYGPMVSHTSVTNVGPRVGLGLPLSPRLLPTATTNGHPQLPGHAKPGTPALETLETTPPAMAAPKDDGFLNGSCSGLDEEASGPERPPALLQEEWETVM

human PTHRs [2] = target: T1, human PTHRs; parameters: host or cells: LLC-PK1, COS-7 or HEK 293 cells; conditions: human PTHRs in LLC-PK1, COS-7 or HEK 293 cells; cited from earlier work; remark: listed apart in the source

For “hPTH-(1-31): C-truncated human PTH peptide, residues 1-31”, the “potency in activating AC compared with hPTH-(1-34)” value (human PTHRs [1]) is given as “as potent as hPTH-(1-34)” and the “potency in activating PLC compared with hPTH-(1-34)” value (human PTHRs [2]) is given as “as potent as hPTH-(1-34)”.
